The nature of the data set: protein stability index of a GFP-peptide fusion (GPS, HEK-293T) (PSI 1-6); higher = more stable.
The mark [1] stands for this setting: treatment: DMSO, c terminus: a fixed tail appended.
[2] abbreviates: treatment: MLN4924 1 uM, 8 h, c terminus: a fixed tail appended.

± gives the standard deviation.
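Also: 24-mer peptide tiles fused after GFP, lentivirally expressed, FACS-sorted into six equal bins by GFP/DsRed ratio, decoded by Illumina sequencing, PSI is the read-weighted mean bin number.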

DKMEGNPICVQIPWDKNPEALAKW [CRY1]: the protein stability index by setting is: under setting [1], 4.54 ± 0.094; under setting [2], 4.33 ± 0.24.
Taken in the same sequence, the figures for YEDGEVEEEADSCFGDDEDDSGTE [CDC34] were 5.61 ± 0.16 and 5.67 ± 0.12.
Take GPHEAFNKLWELCCQWLKPKMRSK [ZNF449]: the protein stability index runs as follows: under setting [1], 2.67 ± 0.88; under setting [2], 2.99 ± 0.71.
On the same counts, the results for ARLLQEGGGGVAAVVVLDQGSRHW [DUSP5] are 2.64 ± 0.97 and 2.44 ± 0.75.
Taken in the same sequence, the figures for LYLFGGHHSRGNTNKFYMLDSRST [KLHDC2] were 2.16 ± 0.12 and 2.17 ± 0.18.
On the same counts, the results for FIYMVLSLFIALITGAYDTIKHPG [MCOLN1] are 2.94 ± 0.21 and 2.85 ± 0.28.
Sequence SGRSGHNTRGTGSSSSGVLMVGPN [CSNK1G3] had a protein stability index under setting [1] of 4.13 ± 0.24 and a protein stability index under setting [2] of 4.18 ± 0.16.
Taken in the same sequence, the figures for RENSKPRAILKPRKVCVGGKRRKD [PPP2R2B] were 4.73 ± 0.35 and 4.89 ± 0.34.
On the same counts, the results for DHCAQQDHGCEQLCLNTEDSFVCQ [MATN2] are 5 ± 0.075 and 5.08 ± 0.16.
For the sequence DAKDAARDMNGKSLDGKAIKVEQA [RBMX], the protein stability index is 5.36 ± 0.41 under setting [1] and 5.37 ± 0.39 under setting [2].
For the sequence QIDQIKRHSNVVILTTSNITEKID [TRIP13], the protein stability index came to 3.21 ± 0.28 under setting [1] and 3.4 ± 0.19 under setting [2].
On the same counts, the results for QYPGNYEQQQILIRQLQEQHYQQY [ACBD3] are 3.17 ± 0.26 and 3.24 ± 0.18.
On the same counts, the results for MVMIRGNSGLKPKDNEFTSKPWHW [POMT2] are 2.38 ± 0.26 and 2.21 ± 0.25.
Taken in the same sequence, the figures for IYGRSQNPVQPIGPQTPKACDSKL [MMP1] were 4.15 ± 0.17 and 4.08 ± 0.12.
On to GGGADTGTGGEEVEALQLSARWLE [FBXO33], for which the protein stability index reads like this: under setting [1], 4.91 ± 0.41; under setting [2], 5.03 ± 0.43.
On the same counts, the results for GEQDTWAGEGAEALARNLLVDGET [NFE2L1] are 5.18 ± 0.57 and 5.15 ± 0.46.
Taken in the same sequence, the figures for EFQPAKCTDKENALKLFPVQPCSA [FAM189A2] were 3.97 ± 0.17 and 4.03 ± 0.51.
On the same counts, the results for RDHHSTHYRASEEEPEYGEEIKGY [CHGB] are 5.1 ± 0.25 and 5.05 ± 0.13.
In the case of ADSVITVGRGEVVTVRVPTHEEGS [ACBD3], the protein stability index was found to be 4.88 ± 0.2 under setting [1] and 4.88 ± 0.16 under setting [2].
Taken in the same sequence, the figures for NPNLSNRRGSTPLHMAVERRVRGV [RIPK4] were 3.84 ± 0.56 and 4.47 ± 0.65.
As for VVEEAKCCCFFKRKRKKTAQRHK [CSNK1G1], the protein stability index reads like this: (treatment: DMSO, c terminus: native) 4.18 ± 0.33; (treatment: MLN4924 1 uM, 8 h, c terminus: native) 4.69 ± 0.42.
Turning to RLIEVEDMMVMGRKPDPMCVFTYV [SMTNL2], the protein stability index is, setting by setting: under setting [1], 2.38 ± 0.37; under setting [2], 2.59 ± 0.41.
Taken in the same sequence, the figures for IKKIEEHAPGVPKILVGNRLHLAF [RAB40A] were 2.39 ± 0.5 and 2.27 ± 0.2.
With LTSQNIEIKLVSDVTADSKVLEAL [PLD5], the protein stability index under setting [1] came out at 3.13 ± 0.31 and the protein stability index under setting [2] is 3.18 ± 0.43.
Taken in the same sequence, the figures for YYPTSSSTSFMSSSSSSSSWLTRR [EMD] were 3.23 ± 0.19 and 3.29 ± 0.39.
Taken in the same sequence, the figures for CSSSDDDTDVDMEGLRRRRGREAG [PBXIP1] were 5.3 ± 0.28 and 5.26 ± 0.21.
Taken in the same sequence, the figures for AHLPKAQLSGYAVEATRNQSQLQR [FBF1] were 4.21 ± 0.044 and 4.08 ± 0.2.
For IKRLWKDSGVQACFNRSREYQLND [GNAI1], the protein stability index by setting is: under setting [1], 2.4 ± 0.41; under setting [2], 2.44 ± 0.72.
As to GTELIQTPLASSTDHQTPPTSPVQ [HDAC6], the protein stability index was found to be 5.11 ± 0.33 under setting [1] and 5.25 ± 0.29 under setting [2].
